Assay results taken from paper PMC11969024 (2025).

B1: peptide HD2 (from tick evasin EVA4) / CXCL13 (biotinylated, synthetic) (parent complex)
chain 1: EEDDYTAYAPLTCYFT
chain 2: VLEVYYTSLRCRCVQESSVFIPRRFIDRIQILPRGNGCPRKEIIVWKKNKSIVCVDPQAEWIQRMMEVLRKRSSSTLPVPVFKRKIP
B2: peptide HD2 (from tick evasin EVA4) / CCL19 (biotinylated, synthetic) (parent complex)
chain 1: EEDDYTAYAPLTCYFT
chain 2: GTNDAEDCCLSVTQKPIPGYIVRNFHYLLIKDGCRVPAVVFTTLRGRQLCAPPDQPWVERIIQRLQRTSAKMKRRSS

Variants of: B1

Row | Variant | enrichment
1 | chain 1 EEDDYTAYAPRTCYFT [chain 1 L11R] | -5.68 log2 (difference from the parental peptide)
2 | chain 1 EEDDYTAYAPTTCYFT [chain 1 L11T] | -3.85 log2 (difference from the parental peptide)
3 | chain 1 EEDVYTAYAPLTCYFT [chain 1 D4V] | -5.82 log2 (difference from the parental peptide)
4 | chain 1 EEDWYTAYAPLTCYFT [chain 1 D4W] | -0.19 log2 (difference from the parental peptide)
5 | chain 1 EEDNYTAYAPLTCYFT [chain 1 D4N] | -3.74 log2 (difference from the parental peptide)
6 | chain 1 EEDHYTAYAPLTCYFT [chain 1 D4H] | -5.54 log2 (difference from the parental peptide)
7 | chain 1 EEDFYTAYAPLTCYFT [chain 1 D4F] | -4.23 log2 (difference from the parental peptide)
8 | chain 1 EEADYTAYAPLTCYFT [chain 1 D3A] | -5.8 log2 (difference from the parental peptide)
9 | chain 1 EEYDYTAYAPLTCYFT [chain 1 D3Y] | -2.28 log2 (difference from the parental peptide)
10 | chain 1 EEWDYTAYAPLTCYFT [chain 1 D3W] | -0.789 log2 (difference from the parental peptide)
11 | chain 1 EEQDYTAYAPLTCYFT [chain 1 D3Q] | -3.76 log2 (difference from the parental peptide)
12 | chain 1 EEGDYTAYAPLTCYFT [chain 1 D3G] | -5.23 log2 (difference from the parental peptide)
13 | chain 1 EETDYTAYAPLTCYFT [chain 1 D3T] | -4.07 log2 (difference from the parental peptide)
14 | chain 1 EEVDYTAYAPLTCYFT [chain 1 D3V] | -5.31 log2 (difference from the parental peptide)
15 | chain 1 EEDDITAYAPLTCYFT [chain 1 Y5I] | -1.67 log2 (difference from the parental peptide)
16 | chain 1 EEDDVTAYAPLTCYFT [chain 1 Y5V] | -2.43 log2 (difference from the parental peptide)
17 | chain 1 EEDDWTAYAPLTCYFT [chain 1 Y5W] | 5.05 log2 (difference from the parental peptide)
18 | chain 1 EEDDYTKYAPLTCYFT [chain 1 A7K] | -1.87 log2 (difference from the parental peptide)
19 | chain 1 EEDDYTIYAPLTCYFT [chain 1 A7I] | 0.819 log2 (difference from the parental peptide)
20 | chain 1 EEDDYTPYAPLTCYFT [chain 1 A7P] | 1.36 log2 (difference from the parental peptide)
21 | chain 1 EEDDYTFYAPLTCYFT [chain 1 A7F] | 0.877 log2 (difference from the parental peptide)
22 | chain 1 EEDDYTVYAPLTCYFT [chain 1 A7V] | 0.636 log2 (difference from the parental peptide)
23 | chain 1 EEDDYTMYAPLTCYFT [chain 1 A7M] | 3.01 log2 (difference from the parental peptide)
24 | chain 1 EEDDYTGYAPLTCYFT [chain 1 A7G] | 1.15 log2 (difference from the parental peptide)
25 | chain 1 EEDDYTAVAPLTCYFT [chain 1 Y8V] | -4.22 log2 (difference from the parental peptide)
26 | chain 1 EEDDYTAFAPLTCYFT [chain 1 Y8F] | 0.328 log2 (difference from the parental peptide)
27 | chain 1 EEDDYTASAPLTCYFT [chain 1 Y8S] | -4.52 log2 (difference from the parental peptide)

Row | Variant | enrichment
28 | chain 1 EEDDYTAWAPLTCYFT [chain 1 Y8W] | 2.6 log2 (difference from the parental peptide)
29 | chain 1 EEDDYTAHAPLTCYFT [chain 1 Y8H] | -6.35 log2 (difference from the parental peptide)
30 | chain 1 EEDDYTAEAPLTCYFT [chain 1 Y8E] | -1.96 log2 (difference from the parental peptide)
31 | chain 1 EEDDYTAIAPLTCYFT [chain 1 Y8I] | -4.99 log2 (difference from the parental peptide)
32 | chain 1 ETDDYTAYAPLTCYFT [chain 1 E2T] | -3.42 log2 (difference from the parental peptide)
33 | chain 1 ELDDYTAYAPLTCYFT [chain 1 E2L] | -1.53 log2 (difference from the parental peptide)
34 | chain 1 ENDDYTAYAPLTCYFT [chain 1 E2N] | -3.27 log2 (difference from the parental peptide)
35 | chain 1 EADDYTAYAPLTCYFT [chain 1 E2A] | -1.7 log2 (difference from the parental peptide)
36 | chain 1 EPDDYTAYAPLTCYFT [chain 1 E2P] | -4.82 log2 (difference from the parental peptide)
37 | chain 1 EEDDYTAYAPLTCYYT [chain 1 F15Y] | -0.776 log2 (difference from the parental peptide)
38 | chain 1 EEDDYTAYAPLTCYQT [chain 1 F15Q] | -6.18 log2 (difference from the parental peptide)
39 | chain 1 EEDDYTAYEPLTCYFT [chain 1 A9E] | 1.61 log2 (difference from the parental peptide)
40 | chain 1 EEDDYTAYTPLTCYFT [chain 1 A9T] | -1.4 log2 (difference from the parental peptide)
41 | chain 1 EEDDYTAYVPLTCYFT [chain 1 A9V] | -5.11 log2 (difference from the parental peptide)
42 | chain 1 EEDDYTAYQPLTCYFT [chain 1 A9Q] | -0.472 log2 (difference from the parental peptide)
43 | chain 1 EEDDYTAYPPLTCYFT [chain 1 A9P] | 2.11 log2 (difference from the parental peptide)
44 | chain 1 EEDDYTAYNPLTCYFT [chain 1 A9N] | -3.98 log2 (difference from the parental peptide)
45 | chain 1 EEDDYTAYLPLTCYFT [chain 1 A9L] | -0.527 log2 (difference from the parental peptide)
46 | chain 1 EEDDYTAYFPLTCYFT [chain 1 A9F] | -2.3 log2 (difference from the parental peptide)
47 | chain 1 EEDDYTAYAPLWCYFT [chain 1 T12W] | -0.341 log2 (difference from the parental peptide)
48 | chain 1 EEDDYTAYAPLRCYFT [chain 1 T12R] | -8.86 log2 (difference from the parental peptide)
49 | chain 1 EEDDYTAYAPLSCYFT [chain 1 T12S] | -6.76 log2 (difference from the parental peptide)
50 | chain 1 EEDDYTAYAPLCCYFT [chain 1 T12C] | -5.24 log2 (difference from the parental peptide)
51 | chain 1 EEDDYTAYAPLPCYFT [chain 1 T12P] | -5.86 log2 (difference from the parental peptide)
52 | chain 1 EEDDYTAYAPLYCYFT [chain 1 T12Y] | -0.431 log2 (difference from the parental peptide)
53 | chain 1 EEDDYTAYALLTCYFT [chain 1 P10L] | -9.28 log2 (difference from the parental peptide)
54 | chain 1 EEDDYTAYAELTCYFT [chain 1 P10E] | -2.35 log2 (difference from the parental peptide)

Row | Variant | enrichment
55 | chain 1 EEDDYTAYAALTCYFT [chain 1 P10A] | -4.03 log2 (difference from the parental peptide)
56 | chain 1 EEDDYTAYAVLTCYFT [chain 1 P10V] | -9.15 log2 (difference from the parental peptide)
57 | chain 1 EEDDYTAYAWLTCYFT [chain 1 P10W] | -7.62 log2 (difference from the parental peptide)
58 | chain 1 EEDDYTAYAHLTCYFT [chain 1 P10H] | -5.73 log2 (difference from the parental peptide)
59 | chain 1 HEDDYTAYAPLTCYFT [chain 1 E1H] | -3.17 log2 (difference from the parental peptide)
60 | chain 1 AEDDYTAYAPLTCYFT [chain 1 E1A] | -0.971 log2 (difference from the parental peptide)
61 | chain 1 TEDDYTAYAPLTCYFT [chain 1 E1T] | -1.65 log2 (difference from the parental peptide)
62 | chain 1 PEDDYTAYAPLTCYFT [chain 1 E1P] | -3.73 log2 (difference from the parental peptide)
63 | chain 1 QEDDYTAYAPLTCYFT [chain 1 E1Q] | -0.204 log2 (difference from the parental peptide)
64 | chain 1 EEDDYLAYAPLTCYFT [chain 1 T6L] | 1.48 log2 (difference from the parental peptide)
65 | chain 1 EEDDYFAYAPLTCYFT [chain 1 T6F] | 1.42 log2 (difference from the parental peptide)
66 | chain 1 EEDDYSAYAPLTCYFT [chain 1 T6S] | 2.15 log2 (difference from the parental peptide)
67 | chain 1 EEDDYYAYAPLTCYFT [chain 1 T6Y] | 3.32 log2 (difference from the parental peptide)
68 | chain 1 EEDDYTAYAPLTCYFP [chain 1 T16P] | -0.922 log2 (difference from the parental peptide)
69 | chain 1 EEDDYTAYAPLTCYFY [chain 1 T16Y] | -0.167 log2 (difference from the parental peptide)
70 | chain 1 EEDDYTAYAPLTCYFA [chain 1 T16A] | 0.703 log2 (difference from the parental peptide)
71 | chain 1 EEDDYTAYAPLTCYFC [chain 1 T16C] | 0.44 log2 (difference from the parental peptide)
72 | chain 1 EEDDYTAYAPLTIYFT [chain 1 C13I] | -4.63 log2 (difference from the parental peptide)
73 | chain 1 EEDDYTAYAPLTVYFT [chain 1 C13V] | -5.3 log2 (difference from the parental peptide)
74 | chain 1 EEDDYTAYAPLTEYFT [chain 1 C13E] | -6.71 log2 (difference from the parental peptide)
75 | chain 1 EEDDYTAYAPLTCWFT [chain 1 Y14W] | -2.89 log2 (difference from the parental peptide)
76 | chain 1 EEDDYTAYAPLTCTFT [chain 1 Y14T] | -6.13 log2 (difference from the parental peptide)
77 | chain 1 EEDDYTAYAPLTCFFT [chain 1 Y14F] | -0.356 log2 (difference from the parental peptide)
78 | chain 1 EEDDYTAYAPLTCVFT [chain 1 Y14V] | -9.22 log2 (difference from the parental peptide)
79 | chain 1 EEDDYTAYAPLTCMFT [chain 1 Y14M] | -7.75 log2 (difference from the parental peptide)

Variants of: B2

Row | Variant | enrichment
80 | chain 1 EEDDYTAYAPLKCYFT [chain 1 T12K] | -6.56 log2 (difference from the parental peptide)
81 | chain 1 EEDDYTAYAPLNCYFT [chain 1 T12N] | -6.73 log2 (difference from the parental peptide)
82 | chain 1 EEDDYTAYAPLSCYFT [chain 1 T12S] | -6.54 log2 (difference from the parental peptide)
83 | chain 1 EEDDYTAYAPLRCYFT [chain 1 T12R] | -3.3 log2 (difference from the parental peptide)
84 | chain 1 WEDDYTAYAPLTCYFT [chain 1 E1W] | 3.38 log2 (difference from the parental peptide)
85 | chain 1 EEPDYTAYAPLTCYFT [chain 1 D3P] | -6.49 log2 (difference from the parental peptide)
86 | chain 1 EEDDYTAYAPLTLYFT [chain 1 C13L] | -7.7 log2 (difference from the parental peptide)
87 | chain 1 EEDDYTAYAPLTNYFT [chain 1 C13N] | -2.93 log2 (difference from the parental peptide)
88 | chain 1 EEDDYTQYAPLTCYFT [chain 1 A7Q] | 0.522 log2 (difference from the parental peptide)
89 | chain 1 EEDDYTTYAPLTCYFT [chain 1 A7T] | -0.798 log2 (difference from the parental peptide)
90 | chain 1 EEDDYTFYAPLTCYFT [chain 1 A7F] | 1.3 log2 (difference from the parental peptide)
91 | chain 1 EEDDYTRYAPLTCYFT [chain 1 A7R] | -0.336 log2 (difference from the parental peptide)
92 | chain 1 EEDDYTPYAPLTCYFT [chain 1 A7P] | -4.29 log2 (difference from the parental peptide)
93 | chain 1 EEDDYTAYWPLTCYFT [chain 1 A9W] | 2 log2 (difference from the parental peptide)
94 | chain 1 EEDDYTAYPPLTCYFT [chain 1 A9P] | -3.61 log2 (difference from the parental peptide)
95 | chain 1 EEDDLTAYAPLTCYFT [chain 1 Y5L] | -3.97 log2 (difference from the parental peptide)
96 | chain 1 EEDDYVAYAPLTCYFT [chain 1 T6V] | -2.16 log2 (difference from the parental peptide)

Row | Variant | enrichment
97 | chain 1 EEDDYFAYAPLTCYFT [chain 1 T6F] | 2.62 log2 (difference from the parental peptide)
98 | chain 1 EEDDYPAYAPLTCYFT [chain 1 T6P] | -4.5 log2 (difference from the parental peptide)
99 | chain 1 EEDDYQAYAPLTCYFT [chain 1 T6Q] | -0.425 log2 (difference from the parental peptide)
100 | chain 1 EEDDYTAYAPLTCYFI [chain 1 T16I] | 0.728 log2 (difference from the parental peptide)
101 | chain 1 EEDDYTAYAPFTCYFT [chain 1 L11F] | -0.375 log2 (difference from the parental peptide)
102 | chain 1 EEDDYTAYAPATCYFT [chain 1 L11A] | -6.47 log2 (difference from the parental peptide)
103 | chain 1 EEDDYTAYAPVTCYFT [chain 1 L11V] | -0.0786 log2 (difference from the parental peptide)
104 | chain 1 EEDDYTAYAPLTCYAT [chain 1 F15A] | -5.34 log2 (difference from the parental peptide)
105 | chain 1 EEDDYTAYAPLTCYDT [chain 1 F15D] | -7.57 log2 (difference from the parental peptide)
106 | chain 1 EEDDYTAYAPLTCYGT [chain 1 F15G] | -8.74 log2 (difference from the parental peptide)
107 | chain 1 EEDDYTAYAPLTCMFT [chain 1 Y14M] | -7.94 log2 (difference from the parental peptide)
108 | chain 1 EEDDYTAYAPLTCHFT [chain 1 Y14H] | -4.96 log2 (difference from the parental peptide)
109 | chain 1 EEDDYTAYAPLTCWFT [chain 1 Y14W] | -2.78 log2 (difference from the parental peptide)
110 | chain 1 EEDDYTAYAPLTCIFT [chain 1 Y14I] | -6.25 log2 (difference from the parental peptide)
111 | chain 1 ECDDYTAYAPLTCYFT [chain 1 E2C] | -4.17 log2 (difference from the parental peptide)
112 | chain 1 EWDDYTAYAPLTCYFT [chain 1 E2W] | 3.67 log2 (difference from the parental peptide)
